Legend:
[1] = target: soluble human C3b (human) (UniProt P01024)
human C4b (human) = target: T1, human C4b (human) (UniProt P0C0L5)
T1 sequence: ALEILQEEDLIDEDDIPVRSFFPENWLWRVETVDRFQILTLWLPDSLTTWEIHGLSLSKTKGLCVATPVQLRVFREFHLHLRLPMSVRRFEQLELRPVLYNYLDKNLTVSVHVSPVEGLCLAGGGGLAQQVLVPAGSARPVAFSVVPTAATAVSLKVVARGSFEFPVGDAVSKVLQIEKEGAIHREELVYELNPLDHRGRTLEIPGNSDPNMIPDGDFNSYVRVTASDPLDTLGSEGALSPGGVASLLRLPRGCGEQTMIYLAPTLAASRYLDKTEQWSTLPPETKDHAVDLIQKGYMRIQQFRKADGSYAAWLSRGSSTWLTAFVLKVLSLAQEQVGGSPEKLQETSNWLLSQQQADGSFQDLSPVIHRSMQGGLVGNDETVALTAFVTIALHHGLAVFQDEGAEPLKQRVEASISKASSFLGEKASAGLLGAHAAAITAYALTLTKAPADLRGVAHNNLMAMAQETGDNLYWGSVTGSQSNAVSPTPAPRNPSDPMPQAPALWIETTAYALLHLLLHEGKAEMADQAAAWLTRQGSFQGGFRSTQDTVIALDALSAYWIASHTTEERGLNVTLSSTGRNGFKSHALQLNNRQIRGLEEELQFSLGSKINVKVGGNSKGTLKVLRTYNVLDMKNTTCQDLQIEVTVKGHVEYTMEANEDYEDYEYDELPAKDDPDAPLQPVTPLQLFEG

Δ(K1-P305); GGSSGG (SEQ ID NO: 6); fH_CCP2-4 (enzyme), sequence (chain): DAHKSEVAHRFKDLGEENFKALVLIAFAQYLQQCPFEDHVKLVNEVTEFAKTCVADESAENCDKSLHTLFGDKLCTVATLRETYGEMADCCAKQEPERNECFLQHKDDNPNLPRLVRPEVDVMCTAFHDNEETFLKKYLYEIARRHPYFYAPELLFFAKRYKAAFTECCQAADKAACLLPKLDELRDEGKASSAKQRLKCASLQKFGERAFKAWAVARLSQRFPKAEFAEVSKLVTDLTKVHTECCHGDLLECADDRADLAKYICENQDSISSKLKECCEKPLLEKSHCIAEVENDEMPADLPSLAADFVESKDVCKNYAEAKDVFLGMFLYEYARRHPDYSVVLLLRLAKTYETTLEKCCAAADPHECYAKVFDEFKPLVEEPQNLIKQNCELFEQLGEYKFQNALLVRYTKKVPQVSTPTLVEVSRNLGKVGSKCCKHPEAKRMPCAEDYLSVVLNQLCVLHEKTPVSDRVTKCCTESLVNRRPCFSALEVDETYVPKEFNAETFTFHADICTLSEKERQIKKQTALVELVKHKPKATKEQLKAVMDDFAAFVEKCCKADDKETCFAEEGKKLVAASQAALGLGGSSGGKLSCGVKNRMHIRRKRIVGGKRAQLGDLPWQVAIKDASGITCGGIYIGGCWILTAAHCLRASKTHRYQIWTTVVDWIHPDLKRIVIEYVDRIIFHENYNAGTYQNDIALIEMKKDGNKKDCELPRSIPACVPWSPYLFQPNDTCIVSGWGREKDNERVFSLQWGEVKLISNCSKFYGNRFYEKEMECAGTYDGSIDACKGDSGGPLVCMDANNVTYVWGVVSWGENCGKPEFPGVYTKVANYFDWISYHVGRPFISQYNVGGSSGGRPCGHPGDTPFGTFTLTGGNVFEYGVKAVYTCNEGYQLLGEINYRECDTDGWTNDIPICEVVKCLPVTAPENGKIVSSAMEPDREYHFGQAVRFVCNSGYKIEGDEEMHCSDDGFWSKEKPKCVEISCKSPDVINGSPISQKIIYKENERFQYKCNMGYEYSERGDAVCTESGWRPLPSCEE
WT; GGSSGG (SEQ ID NO: 6); CCP_2-4 (enzyme), sequence (chain): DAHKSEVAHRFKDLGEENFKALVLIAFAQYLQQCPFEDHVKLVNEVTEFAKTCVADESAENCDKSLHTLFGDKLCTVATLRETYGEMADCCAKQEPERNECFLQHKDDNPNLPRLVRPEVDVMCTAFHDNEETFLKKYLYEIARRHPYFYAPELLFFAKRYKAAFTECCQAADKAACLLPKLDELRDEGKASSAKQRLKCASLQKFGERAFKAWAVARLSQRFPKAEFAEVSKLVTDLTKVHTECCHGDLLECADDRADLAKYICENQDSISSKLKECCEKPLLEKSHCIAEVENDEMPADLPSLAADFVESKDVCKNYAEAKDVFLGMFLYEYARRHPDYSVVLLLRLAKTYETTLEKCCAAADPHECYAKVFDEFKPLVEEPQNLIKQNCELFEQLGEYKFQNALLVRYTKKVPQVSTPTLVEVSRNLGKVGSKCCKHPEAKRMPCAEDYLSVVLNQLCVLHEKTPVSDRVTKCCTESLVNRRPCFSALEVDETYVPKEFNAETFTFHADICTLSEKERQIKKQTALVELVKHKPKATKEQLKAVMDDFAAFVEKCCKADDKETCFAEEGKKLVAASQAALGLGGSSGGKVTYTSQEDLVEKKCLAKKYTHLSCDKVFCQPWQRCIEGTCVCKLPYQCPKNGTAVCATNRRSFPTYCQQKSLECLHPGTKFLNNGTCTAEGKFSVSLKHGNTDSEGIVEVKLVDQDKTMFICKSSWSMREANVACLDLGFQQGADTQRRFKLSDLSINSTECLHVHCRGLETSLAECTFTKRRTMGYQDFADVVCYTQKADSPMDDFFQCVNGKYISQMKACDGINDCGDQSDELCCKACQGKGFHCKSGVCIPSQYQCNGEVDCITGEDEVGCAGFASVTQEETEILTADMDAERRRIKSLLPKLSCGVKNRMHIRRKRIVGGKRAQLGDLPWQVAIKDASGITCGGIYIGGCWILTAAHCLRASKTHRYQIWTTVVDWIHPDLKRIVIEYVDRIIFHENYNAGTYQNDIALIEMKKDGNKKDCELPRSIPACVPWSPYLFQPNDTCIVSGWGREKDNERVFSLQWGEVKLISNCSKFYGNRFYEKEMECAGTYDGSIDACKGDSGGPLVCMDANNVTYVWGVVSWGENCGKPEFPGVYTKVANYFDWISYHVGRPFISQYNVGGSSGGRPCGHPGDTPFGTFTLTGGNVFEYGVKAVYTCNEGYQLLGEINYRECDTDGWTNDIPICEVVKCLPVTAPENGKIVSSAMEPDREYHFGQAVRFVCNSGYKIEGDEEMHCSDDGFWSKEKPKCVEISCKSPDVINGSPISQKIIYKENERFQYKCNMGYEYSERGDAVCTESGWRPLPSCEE

Substance | iC3b Screen Ref Fold (fold vs CFI-HSA wild type) [1] | C4b Screen Ref Fold (fold vs CFI-HSA wild type) (human C4b (human)) | other results
CFI-HSA Y553S (enzyme) | 0.93 | 0.76 | 
CFI-HSA K424P (enzyme) | 1.05 | 0.33 | 
CFI-HSA variant P535G; N422K (enzyme) |  |  | iC3b Screen Ref Fold (fold of CFI-HSA wild type) [1]: 0.52; C4b Screen Ref Fold (fold of CFI-HSA wild type) (human C4b (human)): 0.09
CFI-HSA R365H (enzyme) | 0.43 | 0.31 | 
CFI-HSA variant Y20F; E38A; S250A; D425A (enzyme) | 0.67 | 0.21 | 
CFI-HSA variant M220A-K221Q (enzyme) | 0.49 | 1.85 | 
CFI-HSA E457G; N531G; E530Y (enzyme) | 1.67 | 4.22 | 
CFI-HSA D549G (enzyme) | 0.86 | 0.75 | 
CFI-HSA D549P (enzyme) | 0.53 | 1.08 | 
CFI-HSA variant W381K (enzyme) | 0.02 | 0 | 
WT; GGSSGG (SEQ ID NO: 6); CCP_2-4 (enzyme) | 0 | 0.38 | 
CFI-HSA R365Q (enzyme) | 0.64 | 0.18 | 
CFI-HSA variant Y408L; E457G; P535G; WT; GGSSGG (SEQ ID NO: 6); CR1(ccp15-17) (from UniProt P17927) (enzyme) |  |  | iC3b Screen Ref Fold (fold of CFI-HSA wild type) [1]: 0.23; C4b Screen Ref Fold (fold of CFI-HSA wild type) (human C4b (human)): 1.99
fH_CCP1-4; GGGGSS(7); wt hCFI (enzyme) | 0.77 | 1.21 | 
CFI-HSA V526G (enzyme) | -0.01 | 0.03 | 
CFI-HSA variant S552G (enzyme) |  |  | iC3b Screen Ref Fold (fold of CFI-HSA wild type) [1]: 0.58; C4b Screen Ref Fold (fold of CFI-HSA wild type) (human C4b (human)): 1.08
CFI-HSA T377G; E457G (enzyme) | 2.31 | 4.38 | 
CFI-HSA T377G; E461Q (enzyme) | 2.82 | 3.17 | 
CFI-HSA variant E457G; E461Q; R462K; F464Y; N531G; GGSSGG (SEQ ID NO: 6); CR1(ccp15-17) (from UniProt P17927) (enzyme) |  |  | iC3b Screen Ref Fold (fold of CFI-HSA wild type) [1]: -0.01; C4b Screen Ref Fold (fold of CFI-HSA wild type) (human C4b (human)): 5.42
CFI-HSA A366G (enzyme) | 1.46 | 0.74 | 
CFI-HSA variant K14A; D425R (enzyme) | 0.99 | 0.64 | 
CFI-HSA variant D506A (enzyme) | 0 | 0.02 | 
Δ(K1-P305); GGSSGG (SEQ ID NO: 6); fH_CCP2-4 (enzyme) | 0.03 | 0.06 | 

Substance | iC3b Screen Ref Fold (fold vs CFI-HSA wild type) [1] | C4b Screen Ref Fold (fold vs CFI-HSA wild type) (human C4b (human)) | other results
CFI-HSA variant T495F; Y496L; D497E; S499G; I500K (enzyme) | 0 | -0.04 | 
CFI-HSA variant Y408L; N531G; E416A (enzyme) |  |  | iC3b Screen Ref Fold (fold of CFI-HSA wild type) [1]: 2.07; C4b Screen Ref Fold (fold of CFI-HSA wild type) (human C4b (human)): 2.54
CFI-HSA T377G; E457G; E461Q (enzyme) | 2.27 | 3.75 | 
CFI-HSA K424W (enzyme) | 1.52 | 0.25 | 
CFI-HSA variant I322V (enzyme) | 0.39 | 0.38 | 
CFI-HSA L73G (enzyme) | 0.3 | 0.17 | 
CFI-HSA variant S552G; F559L; V565I (enzyme) |  |  | iC3b Screen Ref Fold (fold of CFI-HSA wild type) [1]: 0.42; C4b Screen Ref Fold (fold of CFI-HSA wild type) (human C4b (human)): 0.73
CFI-HSA D549R (enzyme) | 0.27 | 0.52 | 
CFI-HSA variant K504P (enzyme) | 0.01 | -0.02 | 
CFI-HSA variant N531G; P535A; GGSSGG (SEQ ID NO: 6); CR1(ccp15-17) (from UniProt P17927) (enzyme) |  |  | iC3b Screen Ref Fold (fold of CFI-HSA wild type) [1]: 0.14; C4b Screen Ref Fold (fold of CFI-HSA wild type) (human C4b (human)): 3.53
CFI-HSA variant Y403F; D425K; E457G; E461Q; K504Y; N531G (enzyme) |  |  | iC3b Screen Ref Fold (fold relative to CFI-HSA wild type) [1]: 0.03; C4b Screen Ref Fold (fold relative to CFI-HSA wild type) (human C4b (human)): 3.11
CFI-HSA variant Y408L; N531G; P535G; WT; GGSSGG (SEQ ID NO: 6); CR1(ccp15-17) (from UniProt P17927) (enzyme) |  |  | iC3b Screen Ref Fold (fold of CFI-HSA wild type) [1]: 0.05; C4b Screen Ref Fold (fold of CFI-HSA wild type) (human C4b (human)): 3.6
CFI-HSA D549V (enzyme) | 0.46 | 0.07 | 
CFI-HSA Y553G (enzyme) | 0.88 | 0.48 | 
CFI-HSA D549N (enzyme) | 1.48 | 1.08 | 
CFI-HSA variant Y553H; V565I; P558S (enzyme) |  |  | iC3b Screen Ref Fold (fold of CFI-HSA wild type) [1]: 0.46; C4b Screen Ref Fold (fold of CFI-HSA wild type) (human C4b (human)): 1.75
CFI-HSA D549L (enzyme) | 0.2 | 0.1 | 
CFI-HSA variant N52Q; N85Q; N159Q (enzyme) | 1.93 | 0.24 | 
CFI-HSA R365Y (enzyme) | 0.74 | 0.63 | 
CFI-HSA Y408L; E457G; N531G; D425R; E530Y (enzyme) | 1.08 | 4.1 | 
CFI-HSA variant N159Q (enzyme) | 2.21 | 0.75 | 
CFI-HSA A342G (enzyme) | 1.23 | 0.91 | 
CFI-HSA R557Y (enzyme) | 0.21 | 3.23 | 

Substance | iC3b Screen Ref Fold (fold vs CFI-HSA wild type) [1] | C4b Screen Ref Fold (fold vs CFI-HSA wild type) (human C4b (human)) | other results
CFI-HSA variant P535G; WT; GGSSGG (SEQ ID NO: 6); CR1(ccp15-17) (from UniProt P17927) (enzyme) |  |  | iC3b Screen Ref Fold (fold of CFI-HSA wild type) [1]: 0; C4b Screen Ref Fold (fold of CFI-HSA wild type) (human C4b (human)): 2.73
CFI-HSA R557I (enzyme) | 0.16 | 3.27 | 
CFI-HSA R365P (enzyme) | 0.07 | 0.18 | 
CFI-HSA variant E487A; K14A (enzyme) |  |  | iC3b Screen Ref Fold (fold of CFI-HSA wild type) [1]: 1.71; C4b Screen Ref Fold (fold of CFI-HSA wild type) (human C4b (human)): 0.87
CFI-HSA variant Y408L; N422K (enzyme) |  |  | iC3b Screen Ref Fold (fold of CFI-HSA wild type) [1]: 1.27; C4b Screen Ref Fold (fold of CFI-HSA wild type) (human C4b (human)): 0.6
CFI-HSA T377G; E457G; E461Q; N531G (enzyme) | 1.57 | 4.73 | 
CFI-HSA variant V565I (enzyme) |  |  | iC3b Screen Ref Fold (fold of CFI-HSA wild type) [1]: 1.25; C4b Screen Ref Fold (fold of CFI-HSA wild type) (human C4b (human)): 1.11
CFI-HSA variant R327P (enzyme) | 0.67 | 1.67 | 
CFI-HSA K424A (enzyme) | 0.87 | 0.26 | 
CFI-HSA variant Y20F; D425R (enzyme) | 1.01 | 0.42 | 
CFI-HSA variant E530D (enzyme) | 0.25 | 0.24 | 
CFI-HSA variant T346R; K504E; E530R (enzyme) |  |  | iC3b Screen Ref Fold (fold of reference) [1]: 0.51
CFI-HSA variant I317D-R318D-R319D-K320D-R321K (enzyme) | 0.03 |  | 
CFI-HSA variant Y408E (enzyme) |  |  | iC3b Screen Ref Fold (fold of reference) [1]: 0.23
CFI-HSA variant K504Q (enzyme) | 0.64 |  | 
CFI-HSA variant Y4081 (enzyme) | 0.03 |  | 
CFI-HSA variant N446Q; N476Q; N518Q (enzyme) | 0.06 |  | 
CFI-HSA variant Y408T (enzyme) | 0.04 |  | 
CFI-HSA variant Y408K (enzyme) | 0.65 |  | 
CFI-HSA variant Y408V (enzyme) |  |  | iC3b Screen Ref Fold (fold of reference) [1]: 0
CFI-HSA variant Y408W (enzyme) |  |  | iC3b Screen Ref Fold (fold of reference) [1]: 0.82
CFI-HSA variant Y408D (enzyme) | 0.02 |  | 
